Measurements: the nanobody polyreactivity screen of Harvey et al. (2022)

Test: yeast display, Sf9 membrane polyspecificity reagent, FACS + sequencing; frameworks hold sequencing errors
How it was run: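 A nanobody's polyreactivity label depends on the gate it was sorted from. Yeast display cells were stained with 10% biotinylated, detergent-solubilized Sf9 membrane reagent for 1 hour at 4 °C, enriched on streptavidin microbeads and sorted by FACS. The low and high (top ~1%) gates were set on anti-HA fluorescence for expression and streptavidin fluorescence for reagent binding.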

Sequence | polyreactivity (PSR sort gate)
QVQLVESGGGLVQAGGSLRLSCAASGSTFYPYAMGWYRPAHGKERELVAAITSRVGRTYYADSVKGRFTISRDNAKNTVYLQMNSLKPEDTAVYYCAAKIFIRVHYYSYRMYYWGQGTQVTVSS | low polyreactivity
QVQLVESGGGLVQAGGSLRLSCAASGSTFYPYAMGWYRPAPGKERELVASITLRGSSTYYADSVKGRFTISRDNAKNTVYLQMNSLKPEDTAVYYCAKEGYLYLWRYDYWGQGTQVTVSS | high polyreactivity
QVQLVESGGGLVQAGGSLRLSCAASGSTFYPYAMGWYRQAPGKEREFVAGISRSGGTTYYADSVKGRFTISRDNAKNTVYLQMNSLKPEDTAVYYCAVQIPYVYWSYDYWGQGTQVTVSS | low polyreactivity
QVQLVESGGGLVQAGGSLRLSCAASGSTFYPYAMGWYRQAPGKEREFVARISVSAGRTYYADSVKGRFTISRDNAKNTVYLQMNSLKPEDTAVYYCAKGIPTFYGSPRYDYWGQGTQVTVSS | low polyreactivity
QVQLVESGGGLVQAGGSLRLSCAASGSTFYPYAMGWYRQAPGKERELVAAIDRGGSTSYADSVKGRFTISRDNAKNTVYLQMNSLKPEDTAVYYCAVARGGRRKYEYWGQGTQVTVSS | low polyreactivity
QVQLVESGGGLVQAGGSLRLSCAASGSTFYPYAMGWYRQAPGKERELVAAISSGGSTSYADSVKGRFTISRDNAKNTVYLQMNSLKPEDTAVYYCAVDVAGGEGMDYWGQGTQVTVSS | low polyreactivity
QVQLVESGGGLVQAGGSLRLSCAASGSTFYPYAMGWYRQAPGKERELVAAISSGGSTYYADSVKGRFTISRDNAKNTVYLQMNSLKPEDTAVYYCAADFYYAYYWGQGTEVTVSS | low polyreactivity
QVQLVESGGGLVQAGGSLRLSCAASGSTFYPYAMGWYRQAPGNERELVAAITGTGGSTYYADSVKGRFTISRDNAKNTVYLQMNSLKPEDTAVYYCATRRRYYYSRYNYWGQGTQVTVSS | high polyreactivity
QVQLVESGGGLVQAGGSLRLSCAASGSTFYPYAMGWYSQAPGKERELVAAISSGGSTSYADSVKGRFTISRDNAKNTVYLQMNSLKPEDTAVYYCNASSPGAVPVYDYDYWGQGTQVTVSS | low polyreactivity
QVQLVESGGGLVQAGGSLRLSCAASGSTFYQNAMGWYRQAPGKERELVAAISIGGGRTYYADSVKGRFTISRDNAKNTVYLQMNSLKPEDTAVYYCAAGPTGRYRREFRFDYLGQGTQVTVSS | low polyreactivity
QVQLVESGGGLVQAGGSLRLSCAASGSTFYRNALGWYRQAPGKERELVARIYRSGSSTSYADSVKGRFTISRDYSKNTVYLQMNSLKPVDTAVYYCATVFVRYEMYWGQGTQLTVSS | high polyreactivity
QVQLVESGGGLVQAGGSLRLSCAASGSTFYRNAMGWYRQAPGKEREFVAAISFRGGGTYADSVKGRFTISRDNAKNTVYFQMNILKPEDTAVYYCAADLLSYRGRYEYWGQGTQVTVSS | low polyreactivity
QVQLVESGGGLVQAGGSLRLSCAASGSTFYRNAMGWYRQAPGKERELVAGISYGGGSTYYADSVKGRFTISRDNAKNTVYLQMNSLKPEDTAVYYCNAVWVKRHYYYWGQGTQVTVSS | low polyreactivity
QVQLVESGGGLVQAGGSLRLSCAASGSTFYRNAMGWYRQAPGKERELVAGISYGGGSTYYADSVKGRFTISRDNAKNTVYLQMNSLKPEDTAVYYCYAVWVKRHYYYWGQGTQVTVSS | low polyreactivity
QVQLVESGGGLVQAGGSLRLSCAASGSTFYRNAMGWYRQAPGKERELVAGITSGVTTYYADSVKGRFTISRDNAKNTVYLQMNSLKPEDSAVYYCAVYWRGRGAFTYGSWGQGTQVTVSS | high polyreactivity
QVQLVESGGGLVQAGGSLRLSCAASGSTFYRNSMGWYRQAPGKEREFVAAISFRGGGTYADSVKGRFTISRDNAKNTVYLQMNSLKPEDSAVYYCAADHQSYRRRYEYWGQGTQVTVSS | low polyreactivity
QVQLVESGGGLVQAGGSLRLSCAASGSTFYRYAMGGYRQAPGKERELVASITRGGGRTHYADSVKGRFTISRDNAKNTVYLQMNSLKPEDTAVYYCAAVTPVSYRLYGYWGQGTQVTVSS | high polyreactivity
QVQLVESGGGLVQAGGSLRLSCAASGSTFYRYAMGWYRQAPGKERELVAAINTGGSTNYADSVKGRFTISRDNAKNTVYLQMNSLKPEDTAVYYCAARFQYYRKYDYWGQGTQGTVSS | low polyreactivity
QVQLVESGGGLVQAGGSLRLSCAASGSTFYRYAMGWYRQAPGKERELVATISKRGGSTYYADSVKGRFTISRDNAKYTVYLQMNSLKPEDTAVYYCNVRLEYRYYRGDYWGQGTQVTVSS | high polyreactivity
QVQLVESGGGLVQAGGSLRLSCAASGSTFYRYAMGWYRQAPGKERELVATITNSGGSTYYADSVKGRFTISRDNAKYTVYLQMNSLKPEDTAVYYCARVRSRNTGYYYWGQGTQVTVSS | high polyreactivity
QVQLVESGGGLVQAGGSLRLSCAASGSTFYRYTMGWYRQAPGKEREFVATITGRGGSTYADSVKGRFTISRDNAKNTVYLQMNSLKPEDTAVYYCAKRQTYREYDYWGQGTQVTVSS | low polyreactivity
QVQLVESGGGLVQAGGSLRLSCAASGSTFYSNAMGWYRQAPGKERELVAGIDTSDGSTNYADSVKGRFTISRDNAKNTVYLQMNSLKPEDTAVYYCAADYTQPGFVSYDYWGQGTQVTVSS | low polyreactivity

Sequence | polyreactivity (PSR sort gate)
QVQLVESGGGLVQAGGSLRLSCAASGSTFYSNSMGWYRQAPGKERELVAAIDWGGGSTYYADSVKGRFTISRDNETNTVYLQMNSLKPEDTAVYYCAKKYYKVHKFDYWGQGNQVTVSS | low polyreactivity
QVQLVESGGGLVQAGGSLRLSCAASGSTFYSNVMGWYRQAPGKERELLAAISQSGGRTFYADSVKGRFTISRDNAKITVYLQMNSLKPEDSAVYYSNASSGNRYGPRYDYWGQGTQVTVSS | high polyreactivity
QVQLVESGGGLVQAGGSLRLSCAASGSTFYSNVMGWYRQAPGKERELVAAISQSGGRTFYADSVKGRFTISRDNAKNTVYLQMNSLKPEDTAVYYCNNVRAQPRNPYDYWGQGTQVTVSS | high polyreactivity
QVQLVESGGGLVQAGGSLRLSCAASGSTFYSYAMGWYRQAPGKERELVAAISWDGGLTYYADSVKGRFTISRDNAKNTVYLQMNSLKPEDNAVYYCAAAYPTYRHYYWGQGTQVTVSS | low polyreactivity
QVQLVESGGGLVQAGGSLRLSCAASGSTFYSYAMGWYRQAPGKERELVAAISWNGGSTYYADSVKGRFTISRDNAKNTVYLQMNRLKPEDTAVYYCAALRYVHGYDYWGQGTQVTVSS | high polyreactivity
QVQLVESGGGLVQAGGSLRLSCAASGSTFYSYAMGWYRQAPGKERELVAAISWSGGSTYYADSVKGRFTISRDNAKNTVYLQMNSLKPEDTAVYYCAATRTRGYDGYGMYYWGQGTQVTVSS | high polyreactivity
QVQLVESGGGLVQAGGSLRLSCAASGSTFYSYAMGWYRQAPGKERELVAAITIISGSTYYADSVKGRFTISRDNAKNTVYLQMNSLKPEDTAVYYCAADSYYSFVPLDEYWGQGTQVTVSS | high polyreactivity
QVQLVESGGGLVQAGGSLRLSCAASGSTFYSYAMGWYRQAPGKEREMVAAITRGGSTNYADSVKGRFTISRDNAKNTVYLQMNSLKPDDTAVYYCAKSKYTGTAFGGKKTWFNYWGQGTQVTVSS | high polyreactivity
QVQLVESGGGLVQAGGSLRLSCAASGSTFYSYTMGWYRQAPGKERELVASITRGGSTYYADSVKGRFTISRDNAKNTVYLQLNSLKPEDTAVYYCAARGRYSIARYDYWGQGTQVTVSS | high polyreactivity
QVQLVESGGGLVQAGGSLRLSCAASGSTFYTHAMGWYRQAPGKERELVAAISASVGSTYYADSVKGRFTISRDNAKNTVYLQMNSLKPEDTAVYYCAADVWASRRYDYWGQGTQVTVSS | low polyreactivity
QVQLVESGGGLVQAGGSLRLSCAASGSTFYTNAMGWYRQAPGKERELVAAISGSGGSTYYADSVKGRFTISRDNAKNTVYLQMNSLKPEDTAVYYCAARSRYYDTRFDYWGQGTQVTVSS | low polyreactivity
QVQLVESGGGLVQAGGSLRLSCAASGSTFYTYALGWYRQAPGKERELDAAITYNGGSTYYADSVKGRFTISRDNAKNTVYLQMNSLKPEDTAVYYCARTIYLGSRVNGYWRYDYWGQGTQVTVSS | high polyreactivity
QVQLVESGGGLVQAGGSLRLSCAASGSTFYTYAMGWYRQAPGKECELVAAISNRGGSTRYADSVKGRFTISRDNAKNTVYLQMNSLKPEDTAVYYCAAQRIRRGWYGYWGPGTQVTVSS | high polyreactivity
QVQLVESGGGLVQAGGSLRLSCAASGSTFYTYAMGWYRQAPGKERELVAAISSGGGTTYADSVKGRFTISRDNAKNTVYLQMNSLKPEDTAVYYCAAVTRDYRNDRRRQRYYYWGQGTQVTVSS | high polyreactivity
QVQLVESGGGLVQAGGSLRLSCAASGSTFYTYAMGWYRQAPGKERELVAAISWSGGSTYYADSVKGRFTISRDNAKNTVYLQMNSLKPEDTAVYYCAADRPYAGRYWKGYHSALYDYWGQGTQVTVSS | low polyreactivity
QVQLVESGGGLVQAGGSLRLSCAASGSTFYTYAMGWYRQAPGKERELVAAISYRGGSTYYADSVKGRFTISRDNAKNTVYLQMNSLKPEDTAVYYCNVDGVVVGTKRGGYDYWGQGTQVTVSS | low polyreactivity
QVQLVESGGGLVQAGGSLRLSCAASGSTFYTYVMGGYRQAPGKERELVAAITRSGGITYYADSVKGRFTISRDNAKYTVYLQMNSLKPEDTAVYYCAKDDQTASGFDYWGQGTQVTVSS | low polyreactivity
QVQLVESGGGLVQAGGSLRLSCAASGSTFYTYVMGWYRQAPGKERELVAAISSGGGNTYYADTVTGRFTISRDHGKNTVYLQMNSLKPEDTAVYYCAAETFRWSDYDYWGQGTQVTVSS | high polyreactivity
QVQLVESGGGLVQAGGSLRLSCAASGSTFYVNAMGWYRQAPGKERELVASISSSSGSTYYADSVKGRFTISRDNAKNTVYLQMNSLKPEDTAVYYCAAEVGIFIWFDYWGQGTQVTVSS | low polyreactivity
QVQLVESGGGLVQAGGSLRLSCAASGSTFYVNAMGWYRQAPGKERELVAVISTGGSTYYADSVKGRFTISRDNAKNTVYLQMNSLKPEDTAVYYCAKRDLPDRSGTPNVIPFDYWGQGSQVTVSS | low polyreactivity
QVQLVESGGGLVQAGGSLRLSCAASGSTFYVNDMGRYRQAPGNERELVAAITWGVGDTYYADSVKGRFTISRDNAKNTVYLQMNSQKPEDTAVYYCAADTSYYYAYTQMEYWGQGTQVTVSS | low polyreactivity
